PMC5533585

Biological target: cytoplasmic dynein-1 heavy chain (human (endogenous in HEK-293)) (UniProt Q14204)
Experiment: co-IP + SEC; FLAG immunoprecipitate (GF buffer: 50 mM Tris-HCl pH 8.0, 150 mM NaCl, glycerol, 0.2% Triton X-100) run on Superose 6 Increase 10/300 GL; fractions blotted with anti-FLAG, anti-HC, anti-p150; percent = intensity incorporated/(free + incorporated)

UniProt Q14204, sequence (Q14204 whole entry): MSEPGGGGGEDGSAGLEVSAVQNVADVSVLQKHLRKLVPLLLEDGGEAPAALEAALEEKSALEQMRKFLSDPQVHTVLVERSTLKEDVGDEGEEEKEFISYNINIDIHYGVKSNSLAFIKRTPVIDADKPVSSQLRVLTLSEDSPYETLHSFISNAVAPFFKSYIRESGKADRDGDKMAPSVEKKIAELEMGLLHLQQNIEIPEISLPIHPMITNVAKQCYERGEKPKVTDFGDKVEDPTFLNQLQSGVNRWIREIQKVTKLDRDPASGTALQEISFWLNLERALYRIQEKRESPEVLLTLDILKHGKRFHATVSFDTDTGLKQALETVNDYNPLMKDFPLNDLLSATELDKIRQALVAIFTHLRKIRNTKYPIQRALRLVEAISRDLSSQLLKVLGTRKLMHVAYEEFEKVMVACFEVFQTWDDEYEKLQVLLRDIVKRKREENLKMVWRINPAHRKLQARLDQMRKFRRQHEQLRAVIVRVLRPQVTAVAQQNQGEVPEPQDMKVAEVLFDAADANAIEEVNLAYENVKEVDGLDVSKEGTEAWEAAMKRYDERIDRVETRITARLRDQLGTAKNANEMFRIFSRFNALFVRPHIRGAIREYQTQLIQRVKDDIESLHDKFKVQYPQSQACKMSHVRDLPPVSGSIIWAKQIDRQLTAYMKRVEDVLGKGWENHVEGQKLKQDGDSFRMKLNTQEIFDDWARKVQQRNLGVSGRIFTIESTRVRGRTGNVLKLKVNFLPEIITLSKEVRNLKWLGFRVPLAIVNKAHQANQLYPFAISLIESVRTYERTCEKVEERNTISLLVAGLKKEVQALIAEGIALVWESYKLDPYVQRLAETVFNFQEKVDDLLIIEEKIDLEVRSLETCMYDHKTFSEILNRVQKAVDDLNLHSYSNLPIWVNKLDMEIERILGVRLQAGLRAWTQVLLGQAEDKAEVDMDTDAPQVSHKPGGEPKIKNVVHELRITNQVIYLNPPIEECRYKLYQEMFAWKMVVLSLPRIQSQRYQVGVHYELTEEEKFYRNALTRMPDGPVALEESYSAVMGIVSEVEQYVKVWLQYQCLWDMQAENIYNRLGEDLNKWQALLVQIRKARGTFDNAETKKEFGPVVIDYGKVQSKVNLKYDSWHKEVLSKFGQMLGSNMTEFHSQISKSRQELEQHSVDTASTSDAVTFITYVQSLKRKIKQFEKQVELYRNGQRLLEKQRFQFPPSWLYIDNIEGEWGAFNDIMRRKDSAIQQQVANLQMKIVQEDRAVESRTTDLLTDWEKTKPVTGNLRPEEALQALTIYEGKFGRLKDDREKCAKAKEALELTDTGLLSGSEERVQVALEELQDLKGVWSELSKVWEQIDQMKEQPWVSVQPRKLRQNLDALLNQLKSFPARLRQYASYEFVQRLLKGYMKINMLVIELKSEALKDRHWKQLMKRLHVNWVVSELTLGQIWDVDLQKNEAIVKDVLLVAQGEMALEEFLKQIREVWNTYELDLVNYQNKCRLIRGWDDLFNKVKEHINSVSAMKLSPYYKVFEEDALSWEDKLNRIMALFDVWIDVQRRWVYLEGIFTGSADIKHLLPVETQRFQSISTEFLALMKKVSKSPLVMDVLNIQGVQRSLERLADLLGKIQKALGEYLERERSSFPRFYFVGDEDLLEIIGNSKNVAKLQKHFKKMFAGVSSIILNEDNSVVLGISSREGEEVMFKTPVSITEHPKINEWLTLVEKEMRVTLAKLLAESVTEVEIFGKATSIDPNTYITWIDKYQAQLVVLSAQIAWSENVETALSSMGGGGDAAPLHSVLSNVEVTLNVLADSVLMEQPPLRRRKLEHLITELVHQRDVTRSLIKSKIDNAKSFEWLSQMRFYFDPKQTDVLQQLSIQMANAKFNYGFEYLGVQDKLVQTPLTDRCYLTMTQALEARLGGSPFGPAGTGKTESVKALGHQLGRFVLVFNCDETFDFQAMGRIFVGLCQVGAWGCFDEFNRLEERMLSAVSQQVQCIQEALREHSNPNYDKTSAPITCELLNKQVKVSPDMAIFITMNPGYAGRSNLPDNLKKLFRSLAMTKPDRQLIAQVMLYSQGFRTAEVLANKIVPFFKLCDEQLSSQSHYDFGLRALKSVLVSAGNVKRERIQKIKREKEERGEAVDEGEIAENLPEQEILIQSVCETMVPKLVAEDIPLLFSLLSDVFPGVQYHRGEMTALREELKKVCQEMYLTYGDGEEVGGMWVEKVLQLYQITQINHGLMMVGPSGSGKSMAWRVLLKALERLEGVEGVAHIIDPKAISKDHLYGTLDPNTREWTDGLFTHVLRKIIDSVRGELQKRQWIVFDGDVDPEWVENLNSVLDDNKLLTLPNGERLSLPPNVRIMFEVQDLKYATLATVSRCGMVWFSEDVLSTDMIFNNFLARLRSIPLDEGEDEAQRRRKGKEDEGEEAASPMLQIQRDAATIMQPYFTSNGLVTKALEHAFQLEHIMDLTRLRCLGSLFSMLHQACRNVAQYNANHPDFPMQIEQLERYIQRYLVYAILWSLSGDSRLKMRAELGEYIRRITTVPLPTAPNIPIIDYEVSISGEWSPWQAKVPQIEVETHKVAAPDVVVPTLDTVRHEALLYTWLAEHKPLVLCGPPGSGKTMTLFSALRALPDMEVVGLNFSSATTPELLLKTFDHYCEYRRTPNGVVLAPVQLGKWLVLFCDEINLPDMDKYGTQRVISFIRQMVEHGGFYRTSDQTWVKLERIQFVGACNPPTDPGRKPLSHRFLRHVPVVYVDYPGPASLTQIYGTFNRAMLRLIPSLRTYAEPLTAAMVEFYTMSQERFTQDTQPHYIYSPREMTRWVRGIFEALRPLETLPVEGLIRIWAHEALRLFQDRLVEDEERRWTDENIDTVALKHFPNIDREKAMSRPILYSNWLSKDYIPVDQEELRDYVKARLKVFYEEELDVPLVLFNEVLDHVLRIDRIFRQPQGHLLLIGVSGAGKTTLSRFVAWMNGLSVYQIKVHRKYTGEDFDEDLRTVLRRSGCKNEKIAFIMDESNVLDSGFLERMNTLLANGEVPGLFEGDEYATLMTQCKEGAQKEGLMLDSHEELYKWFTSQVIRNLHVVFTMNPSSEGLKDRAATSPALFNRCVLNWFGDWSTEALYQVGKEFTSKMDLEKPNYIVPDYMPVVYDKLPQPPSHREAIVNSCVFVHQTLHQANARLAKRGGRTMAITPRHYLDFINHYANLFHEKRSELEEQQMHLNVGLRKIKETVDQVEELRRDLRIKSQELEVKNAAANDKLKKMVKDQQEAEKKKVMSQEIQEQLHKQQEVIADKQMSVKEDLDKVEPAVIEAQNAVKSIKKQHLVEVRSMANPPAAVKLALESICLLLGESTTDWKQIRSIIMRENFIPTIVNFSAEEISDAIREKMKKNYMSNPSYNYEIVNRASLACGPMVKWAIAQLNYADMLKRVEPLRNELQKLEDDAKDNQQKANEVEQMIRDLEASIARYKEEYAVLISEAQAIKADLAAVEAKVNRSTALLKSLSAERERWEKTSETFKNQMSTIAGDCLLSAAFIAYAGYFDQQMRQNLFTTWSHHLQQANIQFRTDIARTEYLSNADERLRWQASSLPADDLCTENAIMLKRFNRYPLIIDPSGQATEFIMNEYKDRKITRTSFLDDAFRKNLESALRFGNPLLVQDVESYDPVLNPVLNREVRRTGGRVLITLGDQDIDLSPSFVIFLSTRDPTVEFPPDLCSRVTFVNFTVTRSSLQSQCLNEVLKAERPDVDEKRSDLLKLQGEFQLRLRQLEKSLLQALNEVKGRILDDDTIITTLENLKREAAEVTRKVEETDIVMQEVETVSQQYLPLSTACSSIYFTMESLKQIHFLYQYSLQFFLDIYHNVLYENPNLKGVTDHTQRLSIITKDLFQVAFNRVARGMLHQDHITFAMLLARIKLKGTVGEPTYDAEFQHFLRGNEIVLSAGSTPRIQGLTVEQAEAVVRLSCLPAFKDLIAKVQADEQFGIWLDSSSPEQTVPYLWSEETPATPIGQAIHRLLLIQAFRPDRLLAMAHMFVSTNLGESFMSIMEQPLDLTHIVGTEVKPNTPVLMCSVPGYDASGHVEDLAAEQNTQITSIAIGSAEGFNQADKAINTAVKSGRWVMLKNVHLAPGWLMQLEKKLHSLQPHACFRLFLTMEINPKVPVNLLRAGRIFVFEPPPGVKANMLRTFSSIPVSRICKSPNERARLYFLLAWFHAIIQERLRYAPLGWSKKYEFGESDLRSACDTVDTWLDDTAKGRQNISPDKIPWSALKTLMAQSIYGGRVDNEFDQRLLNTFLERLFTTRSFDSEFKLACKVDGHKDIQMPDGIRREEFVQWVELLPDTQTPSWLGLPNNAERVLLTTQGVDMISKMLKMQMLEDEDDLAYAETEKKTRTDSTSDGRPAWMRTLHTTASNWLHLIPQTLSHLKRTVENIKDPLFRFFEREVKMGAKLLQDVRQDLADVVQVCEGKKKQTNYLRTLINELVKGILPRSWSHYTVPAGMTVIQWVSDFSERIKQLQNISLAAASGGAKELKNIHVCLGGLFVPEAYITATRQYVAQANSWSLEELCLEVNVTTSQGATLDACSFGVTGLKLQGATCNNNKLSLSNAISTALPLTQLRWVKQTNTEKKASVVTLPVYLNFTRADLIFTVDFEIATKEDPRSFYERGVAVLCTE

percent of the tagged subunit incorporated into the complex: 51%
Substance: IC2-BioID-3×FLAG (natural protein)
